# Patent US20120088313A1 (JAPAN TOBACCO, published 2012)
# Target: T1, BioEase tag-fused SITH-1 protein (human herpes virus 6 (HHV-6), biotinylated in vivo (E. coli) within the N-terminal BioEase tag; residue not stated)
# T1 construct: Fusion of the BioEase biotinylation tag (N-terminal) with HHV-6 SITH-1, expressed in E. coli BL21 (DE3); Used as a crude extract on blots, or captured on a TM2 plate; also called BioEase-SITH-1 fusion protein; biotinylated SITH-1
# T1 chain: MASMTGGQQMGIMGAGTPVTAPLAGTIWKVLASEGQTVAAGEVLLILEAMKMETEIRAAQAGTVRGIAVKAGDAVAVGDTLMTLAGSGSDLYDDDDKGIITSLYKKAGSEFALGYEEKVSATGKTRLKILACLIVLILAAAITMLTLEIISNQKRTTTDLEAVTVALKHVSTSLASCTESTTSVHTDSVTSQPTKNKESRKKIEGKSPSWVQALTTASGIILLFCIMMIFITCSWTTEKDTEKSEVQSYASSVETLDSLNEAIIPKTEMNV
# Test: capture of crude extract on TM2-coated microplate (binding through biotin)
binder,measurement,value
"tamavidin 2 (other, Purified TM2 immobilized on a New ELISA microplate; also called TM2; purified TM2) MSDVQSSLTGTWYNELNSKMELTANKDGTLTGKYLSKVGDVYVPYPLSGRYNLQPPAGQGVALGWAVSWENSKIHSATTWSGQFFSESSPVILTQWLLSSSTARGDVWESTLVGNDSFTKTAPTEQQIAHAQLHCRAPRLK",binding result,binds
